Assay results taken from patent US20240190999A1.

Target: human 4-1BB on primary human CD8 T cells (human) (UniProt Q07011)
Test: cell-based or functional assay

Sequence of human 4-1BB on primary human CD8 T cells (human) (Q07011 24-255 limits assumed): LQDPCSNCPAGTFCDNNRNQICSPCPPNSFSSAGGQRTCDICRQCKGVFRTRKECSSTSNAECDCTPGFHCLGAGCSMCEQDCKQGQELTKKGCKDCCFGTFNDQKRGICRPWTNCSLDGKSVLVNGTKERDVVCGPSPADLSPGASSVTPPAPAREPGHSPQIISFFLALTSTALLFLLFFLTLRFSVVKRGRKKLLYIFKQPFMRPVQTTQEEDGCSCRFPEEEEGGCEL

Row | EC50, IFNγ production by primary human CD8 T cells, Fc-mediated cross-linking | EC50, IFNγ production by primary human CD8 T cells, antibody cross-linked via anti-Fc | EC50, IFNγ production by primary human CD8 T cells, antibody soluble | EC50, IFNγ production by primary human CD8 T cells, cross-linked via coated anti-Fc | EC50, IFNγ production by primary human CD8 T cells, without Fc-cross-linking | Substance
1 | 0.42 nM | 0.21 nM | – | – | – | Anti-4-1BB mAb MOR-7480 (antibody)
2 | – | 0.02 nM | 0.93 nM | 0.04 nM | 0.97 nM | Anti-4-1BB mAb 20H4.9 (antibody)
